For the data set the following is noted: Aspergillus oryzae (strain ATCC 42149 / RIB 40); pH 4.7; 38 °C; GdnHCl; DSC; glycine 0.04 M; reversible: yes(>90%); whole UniProt chain shown.

B1: Guanyl-specific ribonuclease T1 wild type, P00651 (protein)
chain: MMYSKLLTLTTLLLPTALALPSLVERACDYTCGSNCYSSSDVSTAQAAGYQLHEDGETVGSNSYPHKYNNYEGFDFSVSSPYYEWPILSSGDVYSGGSPGADRVVFNENNQLAGVITHTGASGNNFVECT
Take B1: the unfolding free energy came to 6.6 kcal/mol.

Values taken from FireProtDB (doi:10.1016/0022-2836(74)90188-0).
